Measured values as given in PMC4425898, “High yield purification of Helicobacter pylori neutrophil-activating protein overexpressed in Escherichia coli” (BMC Biotechnology, 2015).

Molecular target: the molecule itself
Test: native gel or EMSA; native-PAGE (10% acrylamide) of load, unbound, wash and elution fractions of DEAE Sephadex and DEAE Sepharose batch chromatography; 20 mM Tris-HCl, pH 7.0 to 9.0, 50 mM NaCl (1 M NaCl for elution), 4°C

B1: Helicobacter pylori neutrophil-activating protein (natural protein)
chain: MKTFEILKHLQADAIVLFMKVHNFHWNVKGTDFFNVHKATEEIYEEFADMFDDLAERIVQLGHHPLVTLSEAIKLTRVKEETKTSFHSKDIFKEILEDYKYLEKEFKELSNTAEKEGDKVTVTYADDQLAKLQKSIWMLQAHLA
notes: subunit of about 17 kDa on SDS-PAGE; No tag is named; its own experiments show only an oligomer; also called HP-NAP; recombinant HP-NAP; source: E. coli BL21(DE3), plasmid pET42a-NAP; copies: 12
  binding result: binds
